Laboratory results published in article PMC3019263 (Archives of biochemistry and biophysics, 2010).

Molecular target: the molecule itself
Assay: SEC

B1: PheH117, the regulatory domain of rat phenylalanine hydroxylase, lacking residues after Thr117 (domain or fragment, UniProt P04176 1-117, looked up)
chain: MAAVVLENGVLSRKLSDFGQETSYIEDNSNQNGAISLIFSLKEEVGALAKVLRLFEENDINLTHIESRPSRLNKDEYEFFTYLDKRTKPVLGSIIKSLRNDIGATVHELSRDKEKNT
stoichiometry N: 2
